B1: CAI peptide (peptide)
peptide: ITFEDLLDYYGP
notes: source: synthetic peptide, bought: AnaSpec Inc
B2: CAI-4 peptide (peptide)
peptide: ITFEDLLDYYK
notes: variant of CAI peptide with a lysine residue replacing the last two C-terminal amino acids; source: synthetic peptide, bought: AnaSpec Inc

Columns and labels:
[1] = molecular target: T1, wild-type HIV-1 capsid protein (WT CA) (HIV-1 (pLAI.2), UniProt P03348 133-363, biotin (EZ-link Sulfo-NHS-LC-LC-biotin, 1 biotin per molecule) in the SPR only); assay: SPR; Biacore T100; minimally biotinylated WT CA or CA 4Mu hexamer captured on neutravidin on CM5 chips, CAI injected (100 µM and 3-fold dilutions); 50 mM sodium phosphate pH 7.5, 150 mM NaCl, 0.01% P20; steady-state one-site fit; details: both partners purified
T1 construct: HIV-1 capsid protein (CA), the 231 residues of wild-type CA amplified from the infectious HIV-1 cDNA plasmid pLAI.2; The 5' primer added a codon for an N-terminal methionine; untagged (pET30a NdeI/XhoI, stop codon); also called CA FL; full-length wild-type capsid protein; source: E. coli BL21(DE3), purified (ammonium sulfate cut, two rounds of polymerization/depolymerization, Q-HP flow-through); …

[2] = molecular target: T1, wild-type HIV-1 capsid protein (WT CA); assay: turbidity (absorbance at 350 nm) polymerization assay with inhibitor; 40 µM WT CA pre-incubated with inhibitor (2-fold serial dilution from 20 µM final for CAI-4), 50 mM sodium phosphate pH 7.5, 2 M NaCl, 0.005% Antifoam 204, 1% DMSO, 25°C; IC50 from initial rates; details: both partners purified

Row | Binder | Kd [1] [µM] | IC50 [2] [µM]
1 | B1 | 1.38 | 
2 | B2 |  | 4.7 ± 0.9
